Measurements as given in patent US20070269439A1 (published 2007).
Where “and” joins values, the source holds several entries; their conditions need not be identical. Equal values may be shown once.

T1: IL17RLP (Met-(-19) through Gly-270 of SEQ ID NO:2)-Fc fusion (human, UniProt Q9NRM6 18-289)
T1 construct: also called IL17RLP-Fc; soluble IL17RLP-Fc fusion protein; not shown: human Fc domain (heavy chain constant region of IgG1)
T1 sequence: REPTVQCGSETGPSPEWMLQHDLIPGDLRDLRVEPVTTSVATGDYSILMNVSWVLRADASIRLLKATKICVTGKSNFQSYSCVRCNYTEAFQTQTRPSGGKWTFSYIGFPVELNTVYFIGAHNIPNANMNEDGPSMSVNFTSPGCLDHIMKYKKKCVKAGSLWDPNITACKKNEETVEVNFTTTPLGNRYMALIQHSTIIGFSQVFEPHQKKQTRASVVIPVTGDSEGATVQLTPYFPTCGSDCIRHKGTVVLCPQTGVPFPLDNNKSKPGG

B1: recombinant human IL-20 expressed in CHO cells (purified protein or conditioned culture supernatant) (ligand)
chain: RSPKSKRKGQGRPGPLAPGPHQVPLDLVSRMKPYARMEEYERNIEEMVAQLRNSSELAQRKCEVNLQLWMSNKRSLSPWGYSINHDPSRIPVDLPEARCLCLGCVNPFTMQEDRSMVSVPVFSQVPVRRRLCPPPPRTGPCRQRAVMETIAVGCTCIF
notes: The complete ORF was expressed in CHO cells and the protein was secreted; The preparation is heterogeneous; Residues 23-180 is the longest species observed; GenBank AF212311 is printed; also called hIL-20; huIL-20

How the values were obtained:
[1] = target: IL-17 receptor (receptor of the first BIACORE screen of Example 8; construct not stated) (Homo sapiens (Human)) (UniProt Q96F46); assay: BIACORE SPR; IL-17 at 25 ug/mL
[2] = target: T2, IL-17 receptor (Met-1 through Asp-315)-Fc (human, UniProt Q96F46 33-315); assay: BIACORE SPR (summary of Example 8)
T2 construct: range 1-315; also called IL17R-Fc; huIL-17R extracellular domain-Fc; not shown: human Fc domain (heavy chain constant region of IgG1)
Description: (§1) Binding Analyses—IL-20 protein was dialyzed against 10 mM sodium acetate buffer, pH 5 and a BIACORE™ flow cell was prepared for each receptor at densities of 7900 and 9600 RU for IL-17R and IL17RLP, respectively. Various concentrations of purified IL-20 and IL-17 (R&D Systems, Minneapolis, Minn.) in 50 microliters herpes-buffered saline (HBS) buffer were examined for receptor binding at a flow rate of 15 microliters per minute. After injection of sample the flow cell was equilibrated with HBS. Flow cells were regenerated using two 40 sec pulses of 10 mM HCl.

[3] = target: T1, IL17RLP (Met-(-19) through Gly-270 of …); assay: BIACORE SPR (summary of Example 8)
Description: as §1

[4] = target: IL-17 receptor (receptor of the first BIACORE screen of Example 8; construct not stated) (Homo sapiens (Human)) (UniProt Q96F46); assay: BIACORE SPR; conditioned CHO culture supernatant, IL-20 concentration estimated at ~25 ug/mL

T2 sequence (Q96F46 33-315 limits assumed): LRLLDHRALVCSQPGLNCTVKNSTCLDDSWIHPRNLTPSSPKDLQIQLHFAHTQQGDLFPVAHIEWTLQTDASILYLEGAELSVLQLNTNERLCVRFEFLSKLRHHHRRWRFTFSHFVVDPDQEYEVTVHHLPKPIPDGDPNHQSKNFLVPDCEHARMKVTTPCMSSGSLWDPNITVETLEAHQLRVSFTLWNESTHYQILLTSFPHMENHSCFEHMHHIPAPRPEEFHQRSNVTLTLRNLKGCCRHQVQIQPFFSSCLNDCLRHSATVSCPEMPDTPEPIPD

Row | Molecule | SPR binding response (RU) [1] [RU] | binding result [2] | binding result [3] | SPR binding response (RU) [4]
1 | Recombinant human IL-17 (R&D Systems) (from UniProt Q16552 20-155) (ligand) | 60 |  |  | 
2 | B1 |  | binds | binds | 115 RU and 65 RU
